Data published in paper PMC8844826 (iScience, 2022).
Ends that are not written are not given here. TAMRA = 5 (and 6)-carboxytetramethylrhodamine

Columns and labels:
[1] = biological target: T1, full length PSD-95 (FL-PSD-95, 1-724) (human, UniProt P78352 1-724); test: fluorescence polarisation; saturation binding: increasing protein, fixed fluorescently labeled peptide; 50 mM Tris (pH 8.0), 300 mM NaCl, 10 mM EDTA, 1 mM TCEP; 20 min on ice; conditions: both partners purified
T1 construct: construct 32M3C-PSD-95 FL 1-724 from Zeng et al. (2016a); A PreScission 3C site follows the tags; For the arrays 0.1 uM of 1 uM was labelled with Alexa 633 (maleimide); also called PSD protein 95; 32M3C-PSD-95 FL; source: E. coli BL21-DE3-pLysS, purified (HisTrap, SEC)
T1 sequence (P78352 whole entry): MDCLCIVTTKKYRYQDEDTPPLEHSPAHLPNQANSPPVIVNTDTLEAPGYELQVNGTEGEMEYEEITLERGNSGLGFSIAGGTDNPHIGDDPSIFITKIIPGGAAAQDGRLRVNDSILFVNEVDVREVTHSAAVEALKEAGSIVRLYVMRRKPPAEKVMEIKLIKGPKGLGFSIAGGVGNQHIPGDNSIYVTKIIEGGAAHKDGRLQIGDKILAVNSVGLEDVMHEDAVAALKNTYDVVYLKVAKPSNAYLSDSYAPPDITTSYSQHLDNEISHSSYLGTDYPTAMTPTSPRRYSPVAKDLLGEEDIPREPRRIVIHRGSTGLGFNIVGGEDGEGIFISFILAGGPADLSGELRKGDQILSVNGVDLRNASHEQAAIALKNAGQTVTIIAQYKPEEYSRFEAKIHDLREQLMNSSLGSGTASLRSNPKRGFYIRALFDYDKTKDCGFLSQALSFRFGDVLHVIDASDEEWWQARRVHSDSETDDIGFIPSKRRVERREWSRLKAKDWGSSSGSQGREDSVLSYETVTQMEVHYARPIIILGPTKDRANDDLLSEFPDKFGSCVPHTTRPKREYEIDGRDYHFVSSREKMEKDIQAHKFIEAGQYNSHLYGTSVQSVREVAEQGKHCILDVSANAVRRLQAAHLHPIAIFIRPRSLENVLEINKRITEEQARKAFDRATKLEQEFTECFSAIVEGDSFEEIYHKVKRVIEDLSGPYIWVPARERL

GST-Arc 195-364 (rat) = biological target: T2, GST-Arc 195-364 (rat) (rat, UniProt Q63053 195-364); test: as above; conditions: both partners purified
T2 construct: rat Arc residues 195-364, Uniprot Q63053; GST is followed by a thrombin and a factor Xa site; the protein was eluted with glutathione and no cleavage is described; also called pGEX4T1-Arc 195-364; source: E. coli BL21-DE3-pLysS, purified (Glutathione Sepharose, SEC)
T2 sequence (looked up): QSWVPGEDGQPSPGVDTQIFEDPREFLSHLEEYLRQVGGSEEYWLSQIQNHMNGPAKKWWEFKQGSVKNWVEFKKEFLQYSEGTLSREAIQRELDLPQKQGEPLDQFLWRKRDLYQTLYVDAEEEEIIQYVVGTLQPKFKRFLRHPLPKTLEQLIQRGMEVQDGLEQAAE

Kd [1]: 14.9 ± 3 µM
Kd (GST-Arc 195-364 (rat)): 8.37 ± 1.25 µM
B1: TAMRA-G-A222ITRIPSYRYRYQRR236 (fluorescently labeled Stg A222-R236 peptide) (peptide)
peptide: {TAMRA}-GAITRIPSYRYRYQRR
notes: added glycine between TAMRA and A222; also called TMR labeled Stg_(A222-R236); source: synthetic peptide (in-house)
